The values below come from patent US20210388087A1 (Chugai, published 2021).

B1: H183/L072 VH F27H (antibody, name in Kabat numbering, V domains shown)
VH: QVQLVESGGGLVQPGRSLRLSCAASGHTFSNAWMHWVRQAPGKGLEWVAQIKDKGNAYAAYYAPSVKGRFTISRDDSKNSIYLQMNSLKTEDTAVYYCHYVHYASASTVLPAFGVDAWGQGTTVTVSS
VL: DIVMTQSPLSLPVTPGEPASISCQASQELVHMNRNTYLHWYQQKPGQAPRLLIYKVSNRFPGVPDRFSGSGSGTDFTLKISRVEAEDVGVYYCAQGTSVPFTFGQGTKLEIK
B2: H183/L072 VH F100gM (antibody, name in Kabat numbering, V domains shown)
VH: B1 VH with H27F, F113M
VL: B1 VL
B3: H183/L072 VH F27I (antibody, name in Kabat numbering, V domains shown)
VH: B1 VH with H27I
VL: B1 VL
B4: H183/L072 VH F29Q (antibody, name in Kabat numbering, V domains shown)
VH: B1 VH with H27F, F29Q
VL: B1 VL
B5: H183/L072 VH F27M (antibody, name in Kabat numbering, V domains shown)
VH: B1 VH with H27M
VL: B1 VL
B6: H183/L072 VH F27S (antibody, name in Kabat numbering, V domains shown)
VH: B1 VH with H27S
VL: B1 VL
B7: H183/L072 VH F29S (antibody, name in Kabat numbering, V domains shown)
VH: B1 VH with H27F, F29S
VL: B1 VL
B8: H183/L072 VH F29K (antibody, name in Kabat numbering, V domains shown)
VH: B1 VH with H27F, F29K
VL: B1 VL
B9: H183/L072 VH F100gP (antibody, name in Kabat numbering, V domains shown)
VH: B1 VH with H27F, F113P
VL: B1 VL
B10: H183/L072 VH F27P (antibody, name in Kabat numbering, V domains shown)
VH: B1 VH with H27P
VL: B1 VL
B11: H183/L072 VH F29I (antibody, name in Kabat numbering, V domains shown)
VH: B1 VH with H27F, F29I
VL: B1 VL
B12: H183/L072 VH F27N (antibody, name in Kabat numbering, V domains shown)
VH: B1 VH with H27N
VL: B1 VL
B13: H183/L072 VH F27K (antibody, name in Kabat numbering, V domains shown)
VH: B1 VH with H27K
VL: B1 VL
B14: H183/L072 VH F29T (antibody, name in Kabat numbering, V domains shown)
VH: B1 VH with H27F, F29T
VL: B1 VL
B15: H183/L072 VH F29M (antibody, name in Kabat numbering, V domains shown)
VH: B1 VH with H27F, F29M
VL: B1 VL
B16: H183/L072 VH G26F (antibody, name in Kabat numbering, V domains shown)
VH: B1 VH with G26F, H27F
VL: B1 VL
B17: H183/L072 VH F29L (antibody, name in Kabat numbering, V domains shown)
VH: B1 VH with H27F, F29L
VL: B1 VL
B18: H183/L072 VH G26I (antibody, name in Kabat numbering, V domains shown)
VH: B1 VH with G26I, H27F
VL: B1 VL
B19: H183/L072 VH F29A (antibody, name in Kabat numbering, V domains shown)
VH: B1 VH with H27F, F29A
VL: B1 VL
B20: H183/L072 VH F27Q (antibody, name in Kabat numbering, V domains shown)
VH: B1 VH with H27Q
VL: B1 VL
B21: H183/L072 VH F29R (antibody, name in Kabat numbering, V domains shown)
VH: B1 VH with H27F, F29R
VL: B1 VL
B22: H183/L072 VH G26H (antibody, name in Kabat numbering, V domains shown)
VH: B1 VH with G26H, H27F
VL: B1 VL
B23: H183/L072 VH F29E (antibody, name in Kabat numbering, V domains shown)
VH: B1 VH with H27F, F29E
VL: B1 VL
B24: H183/L072 VH F29V (antibody, name in Kabat numbering, V domains shown)
VH: B1 VH with H27F, F29V
VL: B1 VL
B25: H183/L072 VH F29Y (antibody, name in Kabat numbering, V domains shown)
VH: B1 VH with H27F, F29Y
VL: B1 VL
B26: H183/L072 VH F27V (antibody, name in Kabat numbering, V domains shown)
VH: B1 VH with H27V
VL: B1 VL
B27: H183/L072 VH F100gI (antibody, name in Kabat numbering, V domains shown)
VH: B1 VH with H27F, F113I
VL: B1 VL
B28: H183/L072 VH F27R (antibody, name in Kabat numbering, V domains shown)
VH: B1 VH with H27R
VL: B1 VL
B29: H183/L072 VH F27T (antibody, name in Kabat numbering, V domains shown)
VH: B1 VH with H27T
VL: B1 VL
B30: H183/L072 VH F29P (antibody, name in Kabat numbering, V domains shown)
VH: B1 VH with H27F, F29P
VL: B1 VL
B31: H183/L072 VH F27W (antibody, name in Kabat numbering, V domains shown)
VH: B1 VH with H27W
VL: B1 VL
B32: H183/L072 VH F27L (antibody, name in Kabat numbering, V domains shown)
VH: B1 VH with H27L
VL: B1 VL
B33: H183/L072 VH F29W (antibody, name in Kabat numbering, V domains shown)
VH: B1 VH with H27F, F29W
VL: B1 VL
B34: H183/L072 VH F100gA (antibody, name in Kabat numbering, V domains shown)
VH: B1 VH with H27F, F113A
VL: B1 VL
B35: H183/L072 VH G26E (antibody, name in Kabat numbering, V domains shown)
VH: B1 VH with G26E, H27F
VL: B1 VL
B36: H183/L072 VH F27Y (antibody, name in Kabat numbering, V domains shown)
VH: B1 VH with H27Y
VL: B1 VL
B37: H183/L072 VH F29D (antibody, name in Kabat numbering, V domains shown)
VH: B1 VH with H27F, F29D
VL: B1 VL
B38: H183/L072 VH F29N (antibody, name in Kabat numbering, V domains shown)
VH: B1 VH with H27F, F29N
VL: B1 VL
B39: H183/L072 VH F29H (antibody, name in Kabat numbering, V domains shown)
VH: B1 VH with H27F, F29H
VL: B1 VL
B40: H183/L072 VH F100gL (antibody, name in Kabat numbering, V domains shown)
VH: B1 VH with H27F, F113L
VL: B1 VL
B41: H183/L072 VH F29G (antibody, name in Kabat numbering, V domains shown)
VH: B1 VH with H27F, F29G
VL: B1 VL
B42: H183/L072 VH G26D (antibody, name in Kabat numbering, V domains shown)
VH: B1 VH with G26D, H27F
VL: B1 VL

Positions count from the first letter of the chain named. Names and notes keep the numbering of the source.

The test has as its target T1, Human CD3eg linker (human).
T1 construct: Single chain: epsilon and gamma subunits of human CD3 joined by a 29-mer linker, Flag-tag at the C-terminus; also called recombinant human CD3
T1 chain: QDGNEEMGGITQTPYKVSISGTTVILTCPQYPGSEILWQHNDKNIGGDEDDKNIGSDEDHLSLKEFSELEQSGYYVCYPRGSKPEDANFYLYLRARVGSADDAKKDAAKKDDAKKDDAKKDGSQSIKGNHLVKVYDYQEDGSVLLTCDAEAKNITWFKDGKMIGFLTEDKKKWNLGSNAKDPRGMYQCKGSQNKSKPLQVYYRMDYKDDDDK
Nature of the test: Biacore SPR, vs template H183/L072.
Regarding B1, the “fold change of affinity” value amounted to 0.1 fold.
To B2 belongs 1.4 fold; to B3, 0.6 fold.
The value for B4 was 0.2 fold.
To B5 belongs 0.5 fold; to B6, 0 fold; to B7, 0.1 fold.
Take B8: the “fold change of affinity” value amounted to 0.1 fold.
The value for B9 was 1.8 fold.
To B10 belongs 0 fold; to B11, 0.3 fold; to B12, 0.4 fold.
In the case of B13, the “fold change of affinity” value was found to be 0.3 fold.
To B14 belongs 0.2 fold; to B15, 0.4 fold.
To B16 belongs 0.4 fold; to B17, 0.4 fold.
On to B18, for which the “fold change of affinity” value turned out to be 0.5 fold.
To B19 belongs 0.2 fold; to B20, 0 fold; to B21, 0 fold.
On to B22, for which the “fold change of affinity” value was 0 fold.
The value for B23 was 0.1 fold; that for B24 was 0 fold; that for B25 was 0.4 fold.
Turning to B26, the “fold change of affinity” value was 0.3 fold.
To B27 belongs 1.2 fold; to B28, 0.2 fold.
The value for B29 was 0 fold.
The value for B30 was 0.2 fold; that for B31 was 0 fold; that for B32 was 0.4 fold.
With B33, the “fold change of affinity” value worked out at 0.5 fold.
In the case of B34, the “fold change of affinity” value was 1.7 fold.
To B35 belongs 0.6 fold; to B36, 0 fold; to B37, 0 fold.
The value for B38 was 0 fold; that for B39 was 0 fold; that for B40 was 1.3 fold.
The value for B41 was 0 fold; that for B42 was 0.2 fold.
